No end group written: not given here.
Molecular target: T1, recombinant, frog ferritin H protein nanocages (wild type) (Aquarana catesbeiana, UniProt P07229)
T1 construct: made in house
T1 sequence (P07229 1-176): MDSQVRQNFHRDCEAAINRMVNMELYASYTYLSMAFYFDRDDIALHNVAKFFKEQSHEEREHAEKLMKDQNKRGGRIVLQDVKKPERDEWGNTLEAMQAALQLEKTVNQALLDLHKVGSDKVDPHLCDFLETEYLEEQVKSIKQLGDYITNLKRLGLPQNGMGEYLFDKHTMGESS
Assay: Ferritin demineralization: formation of Fe2+-bipyridyl after adding NADH/FMN
Format: biochemical
Settings: for Initial rate of Fe^2+ bipyridyl formation, pH = 7.0: 2.5 mM FMN, 2.5 mM NADH, 2.5 mM bipyridyl, absorbance 522 nm
Excerpt: The effect of the test agent on demineralization (e.g., on release of iron from ferritin) is generally carried out by contacting the test agent with ferritin in the presence of a reductant and an iron chelating agent such as bipyridyl or desferrioxamine. A suitable reductant comprises nicotinamide adenine dinucleotide reduced form (NADH) and flavin mononucleotide (FMN). The reductant reduces Fe(III) to Fe(II); and the iron chelating agent forms a complex with the Fe(II). Iron release from ferritin can be measured using any convenient method, including methods known in the art. The following is a non-limiting example of a suitable method. In this example, iron release from ferritin is measured by the formation of Fe(II)-bipyridyl. Iron release can be initiated by the addition of 2.5 mM bipyridyl, 2.5 mM FMN, and 2.5 mM NADH to ferritin in 0.1 M MOPS (pH 7.0) and 0.2 M NaCl. Formation of Fe(II)-bipyridyl is detected by measuring absorbance at 522 nm. See, e.g. Liu et al. (2003) Proc. Natl. Acad. Sci. USA 100:3653; and Takagi et al. (1998) J. Biol. Chem. 273:18685. Desferrioxamine can also be used as an iron chelator. See, e.g., Breuer et al. (2001) Blood 97:792.
The strategy used to identify molecules that would modulate ferritin protein nanocage pore function had two components: (i) searching a combinatorial peptide library for ferritin binding peptides, and (ii) analyzing the effect of reductants on the ferritin mineral inside the protein nanocages. Peptides were selected as the molecules of choice for pore alterations because of the selectivity of urea (1 mM) and guanidine (0.1 mM) in pore unfolding, observed previously. Liu and Theil (2003) Proc. Natl. Acad. Sci. U.S.A. 100:3653. Changes in ferritin protein nanocage pore gating can be analyzed as changes in the rate of ferritin iron demineralization, measured as formation of colored Fe chelates, when reductant (NADH/FMN) is added. Jones et al. (1978) Biochemistry 17:4011.
The peptides were mixed with wild type ferritin; demineralization was initiated by addition of NADH/FMN, and the appearance of Fe^2+-bipyridyl measured (FIG. 2). Three of the peptides (2, 3, and 5) had no effect on rates of formation of Fe^2+-bipyridyl, compared to wild type ferritin H protein nanocages, while Peptide 4 (Group B, eluted with ferritin H protein nanocages, after elution with ferritin H-L134P protein nanocages) decreased the rate 63%. Peptide 4 has 3 His and 1 Asp and could bind to charged residues around the pore. The peptide interaction with ferritin protein nanocage could interfere with unfolding and/or reductant access to the ferric mineral, or might induce conformational changes at the pore or elsewhere.
FIG. 2. Effect of binding peptides on removal of iron from the ferritin mineral. Demineralization of ferritin (recombinant, frog ferritin H protein nanocages; protein: 2.06 μM; Fe: 0.99 mM, MOPS: 100 mM, NaCl: 100 mM, pH 7.0) was initiated with reductant (final concentration: 2.5 mM FMN, 2.5 mM NADH), with bipyridyl (2.5 mM); formation of Fe^2+-bipyridyl was monitored at 522 nm. Initial reaction rates were calculated as described previously (Liu et al. (2003) Proc. Natl. Acad. Sci. USA 100:3653). Ferritin binding peptides, identified in a combinatorial, heptapeptide, phage-display library (1.3×10^9 members, New England Biolabs), were mixed with mineralized ferritin protein nanocages for one hour before initiating demineralization. Peptide 2 (Group A, eluted with H-L134P ferritin protein nanocage) and Peptides 3 and 5 (Group B, eluted with wild type ferritin protein nanocage), had no effect. The data are averages from triplicates in 2-5 independent experiments with two different protein preparations; the error is the standard deviation. […]

[1] = compared to wild type ferritin H protein nanocages without peptide

Row | Substance | Effect on rates of formation of Fe^2+-bipyridyl [1] | Initial rate of Fe^2+ bipyridyl formation, pH = 7.0 (H-wt ferritin + peptide) | further results
1 | GDWYLGD (SEQ ID NO:5) (GDWYLGDGG; not fully specified (N-terminus)) [Peptide 3, heptapeptide from the phage display library, synthesized as an undecapeptide with HS at the N-terminus and GG at the C-terminus] | no effect |  | 
2 | HHALGGS (SEQ ID NO:6) (HHALGGSGG; not fully specified (N-terminus)) [Peptide 5, heptapeptide from the phage display library, synthesized as an undecapeptide with HS at the N-terminus and GG at the C-terminus] | no effect |  | 
3 | HSHHALDGSGG (SEQ ID NO:2) [Peptide 4] |  | 0.41 ± 0.05 (mMol) × 10^3S^−1 | Decrease of the rate of formation of Fe^2+-bipyridyl [1]: 63%
4 | HSNTYYFPKGG (SEQ ID NO:7) [Peptide 1] |  | 6.80 ± 0.37 (mMol) × 10^3S^−1 | Rate Change with Temperature (Arrhenius equation) E‡ (Table 1, H-wt ferritin + peptide): 19.1 ± 0.621 kcal/mol; E‡ in the Arrhenius plot (wild type ferritin complexed with peptide, FIG. 2B): 20.8 kcal/mol
5 | SHTSPSI (SEQ ID NO:4) (SHTSPSIGG; not fully specified (N-terminus)) [Peptide 2, heptapeptide from the phage display library, synthesized as an undecapeptide with HS at the N-terminus and GG at the C-terminus] | no effect |  | 
